Source: the supplement of paper PMC10126150
± gives the standard deviation of the averaged measurements.

test system: ATP; experiment: switch fluorescence ratio, 500 uM ATP over buffer (Cy3 cluster intensity, sum of 5 cycles each) (fold (ratio)); higher = stronger signal-on switching upon ATP binding; sequences stand for … in TCGTCGGCAGCGTCAGATGTGTATAAGAGACAGTTTTTTTTTTTTTTTTTTTTTTTTT…TC; conditions: aptamer strand: ATP DNA aptamer (quencher-CACCTGGGGGAGTATTGCGGAGGAAGG + anchor), 100 nM annealed; ATP concentration: 500 uM
How it was run: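 Per cluster, summed Cy3 intensity from the target cycles was divided by that from the buffer cycles to give the fluorescence ratio, then averaged per switch-domain sequence. Clusters outside 100-1000 RFU were excluded. The Cy3-labelled switching-strand clusters, on a modified Illumina MiSeq flow-cell, were annealed to 100 nM quencher-labelled ATP aptamer and imaged in selection buffer, then after 15 min with 500 uM ATP at 22 °C, for five cycles with NaOH stripping and re-annealing between them.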
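Note: ATP exposure 15 min at 22 °C before imaging.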

Sequence | switch fluorescence ratio
GAGGATTATT | 0.9694 ± 0.0059
AGGGACATGC | 1.0581 ± 0.00016
ATCCGAACGG | 1.03 ± 0.048
GGGGGTTTCG | 0.999 ± 0.036
TCGGTCAAGG | 0.949 ± 0.02
TGGCTTATTT | 0.988 ± 0.031
GGGGCTATAA | 1.11 ± 0.067
GAGCACGTAT | 1.03 ± 0.063
TTATTGGACT | 1.02 ± 0.019
GGGATTGGTG | 0.995 ± 0.026
GCCTGCCCCG | 1.69 ± 0.026
TAGGGGCGCG | 0.982 ± 0.078
GAATTCTGAG | 1.02 ± 0.04
CAATGTTGAT | 1.01 ± 0.026
TACTGGCTGC | 1.02 ± 0.0078
TATAGGGAGC | 0.947 ± 0.017
TCAGACTTTG | 0.978 ± 0.022
CGACTATCGC | 1.12 ± 0.06
GGCAGGGATT | 1.01 ± 0.014
TTTTACGGTG | 0.978 ± 0.03
GGAGTATCCT | 0.981 ± 0.016
TCGCTATTTA | 1.033 ± 0.0085
AAGAGGGCGG | 0.991 ± 0.034

Sequence | switch fluorescence ratio
ATAAAATATT | 0.998 ± 0.022
ATAAAGTGTG | 1.01 ± 0.02
GGGAGAGGGC | 0.991 ± 0.013
AGCTGTTTGG | 1 ± 0.015
CTTGGGGATG | 0.997 ± 0.042
AAAAAGGAGG | 1 ± 0.015
GCGGGGGATG | 1.01 ± 0.034
CGTCGGCAAA | 3.42 ± 0.21
AGTTAGGCCT | 1.02 ± 0.039
GGTGAAATTG | 1 ± 0.015
AGTGAGCTGA | 0.9769 ± 0.0069
TATTACCCAA | 1.05 ± 0.025
GGTTTGACTA | 0.9857 ± 0.0066
GGAGGGGGAG | 0.9817 ± 0.0084
AAATGAGTTT | 1.02 ± 0.013
TTGTCTAGGG | 0.98 ± 0.033
GTCGGCGTAG | 1.03 ± 0.036
TGTGGGGATG | 1.01 ± 0.02
AAGGGGGAGC | 0.988 ± 0.042
AACAAACGGT | 1.36 ± 0.057
GCCAGTAAGT | 0.994 ± 0.039
TCATTAATTG | 1.024 ± 0.0078
ATAACCCCGA | 1.088 ± 0.0075

Sequence | switch fluorescence ratio
CAGCCCAGGT | 4.12 ± 2.7
ATCGCCGGGG | 1.02 ± 0.045
AAGAATTGGG | 1.06 ± 0.11
GCTGCAGGGT | 0.9922 ± 0.009
TTTCCGGATT | 1.02 ± 0.059
AGTTCGTGGG | 0.973 ± 0.013
TAGAGGCTGA | 0.9937 ± 0.0054
CAGTAATTGA | 1 ± 0.026
GCGCCCAACT | 1.03 ± 0.035
CATTCCGTTC | 1.42 ± 0.017
TGGGGGGATT | 1.01 ± 0.045
TGATACAAGC | 1.05 ± 0.032
AAGAGACTGT | 1.002 ± 0.0034
TTGCTGAGCC | 0.96 ± 0.024
AAAGAAATTC | 1.02 ± 0.068
TAACTGTTTT | 1.06 ± 0.056
GGAAGAGAAC | 0.995 ± 0.017
GAAGTTTAAA | 1.02 ± 0.035
ATTCCTAGTG | 1.03 ± 0.035
ATATTAGAAC | 1.01 ± 0.0027
GGTCCAAAAG | 1.008 ± 0.0075
ATGAGATTTT | 0.988 ± 0.015
GCAGCAGACG | 1.2 ± 0.076

Sequence | switch fluorescence ratio
TATGCAGACT | 0.956 ± 0.092
TTTGTTAGAA | 1.02 ± 0.012
TCGAGGTTGC | 0.993 ± 0.025
CGGCGTTATG | 0.988 ± 0.014
TCCGCTTTTT | 1.1 ± 0.15
CGATGTGTGC | 1.17 ± 0.0054
TTGCCGCAGC | 1.49 ± 0.054
TGTGGGGGGG | 1.01 ± 0.045
AGGCTTGATG | 0.972 ± 0.033
TAGTCCAAAT | 0.9738 ± 0.0018
TGGGCGGTA | 0.963 ± 0.026
GGAGCAGGGA | 0.963 ± 0.025
AGAAACAGCT | 1.04 ± 0.046
ACTGCTTGGT | 0.996 ± 0.017
TGAACGGCTT | 1.04 ± 0.011
GGTACTATAG | 1.034 ± 0.0066
AACGACCCCC | 1.74 ± 0.31
GCTGCGGGAT | 1.16 ± 0.15
CGATGATCGG | 1 ± 0.016
CTTATTGTAG | 0.964 ± 0.061
GTGAAAATTT | 1.07 ± 0.083
TATTTTAAGT | 0.993 ± 0.038
CAGTTGGACG | 1.04 ± 0.11

Sequence | switch fluorescence ratio
ATTTAGGTTT | 1.01 ± 0.012
CGGGAAATGG | 1.007 ± 0.0064
CAGATCCTTA | 1.051 ± 0.0082
TTTATGTCCA | 0.9923 ± 0.0021
GTTTGTCAGC | 1.01 ± 0.024
GATAACCTTT | 1.073 ± 0.0078
TGATAGGTGC | 1.19 ± 0.014
TTTGAGGCCT | 0.99 ± 0.025
TTCCTGGGGA | 0.9943 ± 0.0077
TTTAAATTGT | 0.99 ± 0.035
GGACAAACTC | 1.04 ± 0.036
TGGATTGACT | 1.058 ± 0.0013
GTAACCCCGG | 1.07 ± 0.025
ATAATCTGTG | 0.986 ± 0.0023
TGGCTTTTTT | 0.998 ± 0.027
CGAAGGAATC | 1.78 ± 1.1
GGCATTTGTG | 1 ± 0.025
TGGCACCATT | 1.06 ± 0.047
TAAGGTTGTA | 0.9705 ± 0.0047
GGGCTTGTCC | 0.98 ± 0.043
CAAGGGTCCG | 0.991 ± 0.045
CCATTTTCAT | 0.99 ± 0.041
CGGGGGGAGC | 1.01 ± 0.056

Sequence | switch fluorescence ratio
CTTGGAGGA | 1.024 ± 0.0093
GGGTTAAACT | 0.987 ± 0.023
AACTGTTTCG | 0.9707 ± 0.0013
AATGGTATGG | 0.982 ± 0.024
AGATGTCTGG | 0.9897 ± 0.0063
GACGTGTTG | 1.01 ± 0.025
ACCGCCGTCA | 1.08 ± 0.012
TAGGGGTGCA | 1.079 ± 0.009
GATGAACGTC | 1.11 ± 0.19
ATATAGTAAT | 0.9842 ± 0.0078
TGTGGTGCAG | 1 ± 0.042
TTTTTTTGGC | 1.02 ± 0.029
CTGCTAGATG | 0.983 ± 0.051
GGCGTTTTCG | 0.997 ± 0.044
CGACGACAGG | 1.35 ± 0.024
GCCGCGTATA | 1.43 ± 0.058
ACTTGAAGTG | 0.997 ± 0.021
TTCATGGTTT | 1.01 ± 0.028
CGAGAGGTGG | 1.04 ± 0.055
TTTGTGTTTT | 1.03 ± 0.044
TAATAGAAGT | 0.979 ± 0.052
TACTAAGAGA | 1.03 ± 0.029
TAGGGACAGG | 0.99 ± 0.038

Sequence | switch fluorescence ratio
GTGAGGCGGT | 0.968 ± 0.017
CAGAAGTCCA | 0.991 ± 0.052
AGTTAACAGC | 0.959 ± 0.04
CGGAAGTGCG | 1.0061 ± 6.8e-05
GACCATACGT | 1.49 ± 0.026
TGCGCTGTA | 1.02 ± 0.018
AGGGAGCAGA | 0.9948 ± 0.0059
TGTAAGCTGG | 1.03 ± 0.073
TGGGTCAGTG | 1 ± 0.021
GAGTGCTGGG | 1.01 ± 0.011
AACGGGGATA | 1.049 ± 0.0065
TTCGGTAAAT | 1.03 ± 0.033
ATAGATCATC | 1.05 ± 0.02
ATCGGGCGTA | 1.01 ± 0.044
AAATCGGCTC | 0.989 ± 0.025
GGGGCAATTT | 1.04 ± 0.052
CTTGCCGGCG | 1.07 ± 0.03
AGGGCTGGGT | 1 ± 0.033
TTTGTCTAG | 1.022 ± 0.00058
